Source: paper PMC10955725

Biological target: His6-Mb(S2)-Avi, recombinant monobody
Assay: BLI

## wild-type (WT) SOD1, non-tagged recombinant (from UniProt P00441 2-154) (natural protein)
  Kd: 7 µM
